{"source": "paper PMC9881170", "key": {"[1]": {"target": "55S mitoribosome, subunits crosslinked;mtIF2 (Homo sapiens (HEK293S TetR GnTI-);Homo sapiens) (UniProt P46199)", "sequence (P46199 whole entry, looked up, tested part not stated)": "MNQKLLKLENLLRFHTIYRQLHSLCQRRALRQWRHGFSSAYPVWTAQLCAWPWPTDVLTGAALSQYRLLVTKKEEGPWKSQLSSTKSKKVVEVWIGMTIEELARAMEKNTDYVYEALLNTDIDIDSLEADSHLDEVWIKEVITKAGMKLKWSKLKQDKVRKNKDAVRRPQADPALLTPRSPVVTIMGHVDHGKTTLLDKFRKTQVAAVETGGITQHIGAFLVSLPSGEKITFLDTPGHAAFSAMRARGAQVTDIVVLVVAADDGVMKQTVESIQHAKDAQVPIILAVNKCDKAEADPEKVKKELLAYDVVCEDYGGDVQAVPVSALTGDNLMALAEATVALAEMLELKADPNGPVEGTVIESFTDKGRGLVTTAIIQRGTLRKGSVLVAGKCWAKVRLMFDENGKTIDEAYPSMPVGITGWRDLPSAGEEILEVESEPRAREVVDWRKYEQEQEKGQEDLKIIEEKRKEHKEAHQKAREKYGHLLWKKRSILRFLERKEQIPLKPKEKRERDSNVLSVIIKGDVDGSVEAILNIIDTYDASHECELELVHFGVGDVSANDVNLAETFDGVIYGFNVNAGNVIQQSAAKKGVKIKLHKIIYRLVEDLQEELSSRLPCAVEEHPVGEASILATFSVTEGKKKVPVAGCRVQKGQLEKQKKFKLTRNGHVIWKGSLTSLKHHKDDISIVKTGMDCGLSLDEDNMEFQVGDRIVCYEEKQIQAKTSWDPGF", "test": "sucrose gradient co-sedimentation, Cy3 fluorescence", "conditions": "+ E. coli fMet-tRNAfMet; no mtIF3; 200 nM 55S or 28S, 240 nM mtIF2, 240 nM mtIF3, 240 nM fMet-tRNAfMet, 400 nM mRNA; 37 C 30 min (then ice 15 min for mRNA binding); filter wash with 20 mM Mg2+ …"}, "[2]": {"target": "55S mitoribosome (re-associated);mtIF2;mtIF3 (Homo sapiens (HEK293S TetR GnTI-);Homo sapiens;Homo sapiens) (UniProt P46199+Q9H2K0)", "test": "sucrose gradient co-sedimentation, Cy3 fluorescence", "conditions": "+ E. coli fMet-tRNAfMet; 200 nM 55S or 28S, 240 nM mtIF2, 240 nM mtIF3, 240 nM fMet-tRNAfMet, 400 nM mRNA; 37 C 30 min (then ice 15 min for mRNA binding); filter wash with 20 mM Mg2+ …"}, "[3]": {"target": "55S mitoribosome (crude);mtIF2;mtIF3 (bovine (liver);Homo sapiens;Homo sapiens) (UniProt P46199+Q9H2K0)", "test": "co-sedimentation", "conditions": "200 nM 55S or 28S, 240 nM mtIF2, 240 nM mtIF3, 240 nM fMet-tRNAfMet, 400 nM mRNA, 37 C 30 min (then ice 15 min for mRNA binding), filter wash with 20 mM Mg2+ …"}}, "data": [{"substance": "AUGGCACAUGCAGCGCAAGUAGGUCUACAA [MTCO2 mRNA first 30 nt]", "values": [{"measurement": "binding signal (% of 55S with mRNA bound)", "setting": "[1]", "value": 25}, {"measurement": "binding signal (% of 55S with mRNA bound)", "setting": "[2]", "value": 50}]}, {"substance": "fMet-tRNAfMet (35S)", "values": [{"measurement": "binding signal (% of 55S with [35S]-fMet-tRNAfMet)", "setting": "[3]; + 30-nt leaderless mRNA S2, EF-Tu, Phe-tRNAPhe", "value": 27}]}, {"substance": "Phe-tRNAPhe", "values": [{"measurement": "binding signal (% of 55S with [3H]-Phe-tRNAPhe)", "setting": "[3]; + EF-Tu, 30-nt leaderless mRNA S2, fMet-tRNAfMet", "value": 22}]}]}
